US20150344570A1 (published 2015)

T1: FcγRIIb extracellular domain with C-terminal His tag (human, UniProt P31994 43-217)
T1 construct: extracellular domain; Soluble receptor expressed in FreeStyle293 cells and used as analyte in Biacore; also called FcgRIIb; 2b; not shown: His tag attached to the C terminus
T1 sequence (looked up): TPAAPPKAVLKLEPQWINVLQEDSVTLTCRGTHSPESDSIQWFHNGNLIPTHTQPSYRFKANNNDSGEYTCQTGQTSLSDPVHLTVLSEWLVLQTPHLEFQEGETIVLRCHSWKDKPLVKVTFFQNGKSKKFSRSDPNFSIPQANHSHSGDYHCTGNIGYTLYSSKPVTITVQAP

T2: FcγRIIb (human, UniProt P31994 43-217)
T2 construct: extracellular domain; Soluble extracellular domain with C-terminal His tag, used as analyte in Biacore; also called FcgRIIb; 2b; not shown: His tag attached to the C terminus
T2 sequence (looked up): T1 sequence (looked up)

B1: GpH7-A5/GpH7-B3 variant G237_08L/GpL16-k0 (antibody, human IgG1, kappa)
heavy 1: not shown
heavy 2: not shown
light: DIVMTQSPLSLPVTPGEPASISCQASESLVHSNRNTYLHWYLQKPGQSPQLLIYKVSNRFSGVPDRFSGSGSGTDFTLKISRVEAEDVGVYYCSQNTHVPPTFGQGTKVEIERTVAAPSVFIFPPSDEQLKSGTASVVCLLNNFYPREAKVQWKVDNALQSGNSQESVTEQDSKDSTYSLSSTLTLSKADYEKHKVYACEVTHQGLSSPVTKSFNRGEC
notes: Heterodimerized anti-glypican-3 IgG1; alteration in the GpH7-B3 chain only; also called He Ab
B2: GpH7-A5/GpH7-B3 variant S239_10E/GpL16-k0 (antibody, human IgG1, kappa)
heavy 1: not shown
heavy 2: not shown
light: B1 light
notes: as for B1
B3: GpH7-A5/GpH7-B3 variant G236_09D/GpL16-k0 (antibody, human IgG1, kappa)
heavy 1: not shown
heavy 2: not shown
light: B1 light
notes: as for B1
B4: GpH7-A5/GpH7-B3 variant G237_09D/GpL16-k0 (antibody, human IgG1, kappa)
heavy 1: not shown
heavy 2: not shown
light: B1 light
notes: as for B1
B5: GpH7-A5/GpH7-B3 variant S239_01G/GpL16-k0 (antibody, human IgG1, kappa)
heavy 1: not shown
heavy 2: not shown
light: B1 light
notes: as for B1
B6: GpH7-A5/GpH7-B3 variant P238_04F/GpL16-k0 (antibody, human IgG1, kappa)
heavy 1: not shown
heavy 2: not shown
light: B1 light
notes: as for B1
B7: GpH7-A5/GpH7-B3 variant V266_06M/GpL16-k0 (antibody, human IgG1, kappa)
heavy 1: not shown
heavy 2: not shown
light: B1 light
notes: as for B1
B8: GpH7-A5/GpH7-B3 variant S239_08L/GpL16-k0 (antibody, human IgG1, kappa)
heavy 1: not shown
heavy 2: not shown
light: B1 light
notes: as for B1
B9: GpH7-A5/GpH7-B3 variant S239_09D/GpL16-k0 (antibody, human IgG1, kappa)
heavy 1: not shown
heavy 2: not shown
light: B1 light
notes: as for B1
B10: GpH7-A5/GpH7-B3 variant E269_12R/GpL16-k0 (antibody, human IgG1, kappa)
heavy 1: not shown
heavy 2: not shown
light: B1 light
notes: Heterodimerized anti-glypican-3 IgG1 with the alteration in only one H chain; also called He Ab
B11: GpH7-A5/GpH7-B3 variant Q295_02A/GpL16-k0 (antibody, human IgG1, kappa)
heavy 1: not shown
heavy 2: not shown
light: B1 light
notes: as for B10
B12: GpH7-A5/GpH7-B3 variant P271_20W/GpL16-k0 (antibody, human IgG1, kappa)
heavy 1: not shown
heavy 2: not shown
light: B1 light
notes: as for B10
B13: GpH7-A5/GpH7-B3 variant E269_19Q/GpL16-k0 (antibody, human IgG1, kappa)
heavy 1: not shown
heavy 2: not shown
light: B1 light
notes: as for B10
B14: GpH7-A5/GpH7-B3 variant Q295_09D/GpL16-k0 (antibody, human IgG1, kappa)
heavy 1: not shown
heavy 2: not shown
light: B1 light
notes: as for B10
B15: GpH7-A5/GpH7-B3 variant E269_16H/GpL16-k0 (antibody, human IgG1, kappa)
heavy 1: not shown
heavy 2: not shown
light: B1 light
notes: as for B10
B16: GpH7-A5/GpH7-B3 variant Q295_01G/GpL16-k0 (antibody, human IgG1, kappa)
heavy 1: not shown
heavy 2: not shown
light: B1 light
notes: as for B10
B17: GpH7-A5/GpH7-B3 variant E269_13S/GpL16-k0 (antibody, human IgG1, kappa)
heavy 1: not shown
heavy 2: not shown
light: B1 light
notes: as for B10
B18: GpH7-A5/GpH7-B3 variant E269_18N/GpL16-k0 (antibody, human IgG1, kappa)
heavy 1: not shown
heavy 2: not shown
light: B1 light
notes: as for B10

Each binder was assayed against T3, FcγRIa (human, UniProt P12314 16-292) (assay: SPR (Biacore); He/Con_1a divided by He/Con_2b (binding to FcγRIa against binding to FcγRIIb)).
T3 construct: extracellular domain; Soluble extracellular domain with C-terminal His tag, used as analyte in Biacore; also called FcgRI; 1a; not shown: His tag attached to the C terminus
Method: (§1) The heterodimerized antibodies He Abs in which one of the H chains was introduced with an alteration were assayed for their binding activities to each activating FcγR and inhibitory FcγR according to the method described in Example 4. […] The activating FcγRs in FIGS. 26, 27, 28, and 29 are FcγRIa, FcγRIIa (R), FcγRIIa (H), and FcγRIIIa, respectively.
(§2) Analysis of interaction between objective antibody and the FcγR was carried out using Biacore T100 (GE Healthcare). HBS-EP+ (GE Healthcare) was used as the running buffer, and the measurement temperature was set to 25° C. Chips produced by immobilizing the antigen peptide by the amine coupling method to a Series S Sencor Chip CM5 (GE Healthcare), or alternatively, chips produced by allowing preliminarily biotinylated antigen peptides to interact with and immobilize onto a Series S Sensor Chip SA (certified) (GE Healthcare) were used. Antibodies of interest were captured onto an antigen peptide-immobilized chip, and allowed to interact to each FcγR diluted with running buffer. To regenerate and repeatedly use the chip, the antibodies captured on the chip were washed off by reacting 10 mM glycine-HCl, pH 1.5.

T3 sequence (P12314 16-292): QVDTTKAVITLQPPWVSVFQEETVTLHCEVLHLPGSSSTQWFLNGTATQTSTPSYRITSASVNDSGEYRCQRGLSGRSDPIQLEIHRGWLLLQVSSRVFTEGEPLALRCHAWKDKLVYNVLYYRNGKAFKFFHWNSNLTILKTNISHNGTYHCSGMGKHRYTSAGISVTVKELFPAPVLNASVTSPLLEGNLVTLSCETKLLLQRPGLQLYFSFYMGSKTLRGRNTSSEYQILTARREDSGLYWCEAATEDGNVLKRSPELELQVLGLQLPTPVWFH

| He_1a/2b (Ia/IIb) [ratio] | Binder |
| --- | --- |
| 0.54 | B1 |
| 0.58 | B2 |
| 0.58 | B3 |
| 0.38 | B4 |
| 0.7 | B5 |
| 0.32 | B6 |
| 0.4 | B7 |
| 0.71 | B8 |
| 0.49 | B9 |

What follows are binders tested against T1, FcγRIIb extracellular domain with … (assay: SPR (Biacore), antibody captured, FcγR as analyte; binding activity relative to control heterodimerized antibody).
Method: as §1, §2

| He/Con_2b | Binder |
| --- | --- |
| 25.2 % of GpH7-A5/GpH7-B3/GpL16-k0 (=100) | B10 |
| 79.7 % of GpH7-A5/GpH7-B3/GpL16-k0 (=100) | B11 |
| 58.1 % of GpH7-A5/GpH7-B3/GpL16-k0 (=100) | B12 |
| 44.3 % of GpH7-A5/GpH7-B3/GpL16-k0 (=100) | B13 |
| 60.8 % of GpH7-A5/GpH7-B3/GpL16-k0 (=100) | B14 |
| 38.5 % of GpH7-A5/GpH7-B3/GpL16-k0 (=100) | B15 |
| 46 % of GpH7-A5/GpH7-B3/GpL16-k0 (=100) | B16 |
| 47.8 % of GpH7-A5/GpH7-B3/GpL16-k0 (=100) | B17 |
| 44.8 % of GpH7-A5/GpH7-B3/GpL16-k0 (=100) | B18 |

Each binder was assayed against T4, FcγRIIIa extracellular domain with C-terminal His tag (human, UniProt P08637 17-208) in the same assay as above.
T4 construct: extracellular domain; also called FcgRIIIa; 3a; not shown: His tag attached to the C terminus
Method: as §1, §2

T4 sequence (P08637 17-208): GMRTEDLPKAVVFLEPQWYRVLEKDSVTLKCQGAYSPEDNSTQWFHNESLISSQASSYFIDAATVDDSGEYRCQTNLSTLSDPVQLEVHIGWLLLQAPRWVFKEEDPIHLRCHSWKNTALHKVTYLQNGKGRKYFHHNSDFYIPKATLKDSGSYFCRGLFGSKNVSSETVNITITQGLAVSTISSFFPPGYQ

| He/Con_3a | Binder |
| --- | --- |
| 43.2 % of GpH7-A5/GpH7-B3/GpL16-k0 (=100) | B10 |
| 106 % of GpH7-A5/GpH7-B3/GpL16-k0 (=100) | B11 |
| 74.1 % of GpH7-A5/GpH7-B3/GpL16-k0 (=100) | B12 |
| 65 % of GpH7-A5/GpH7-B3/GpL16-k0 (=100) | B13 |
| 81.5 % of GpH7-A5/GpH7-B3/GpL16-k0 (=100) | B14 |
| 51.2 % of GpH7-A5/GpH7-B3/GpL16-k0 (=100) | B15 |
| 73 % of GpH7-A5/GpH7-B3/GpL16-k0 (=100) | B16 |
| 62.7 % of GpH7-A5/GpH7-B3/GpL16-k0 (=100) | B17 |
| 57.8 % of GpH7-A5/GpH7-B3/GpL16-k0 (=100) | B18 |

Each binder was assayed against T2, FcγRIIb (assay: SPR (Biacore), antibody captured, FcγR as analyte; relative to GpH7-A5/GpH7-B3/GpL16-k0 = 100).

| He/Con_2b | Binder |
| --- | --- |
| 148 % of control (=100) | B1 |
| 181 % of control (=100) | B2 |
| 167 % of control (=100) | B3 |
| 223 % of control (=100) | B4 |
| 144 % of control (=100) | B5 |
| 312 % of control (=100) | B6 |
| 251 % of control (=100) | B7 |
| 140 % of control (=100) | B8 |
| 206 % of control (=100) | B9 |

What follows are binders tested against T3, FcγRIa in the same assay as above.

| He/Con_1a | Binder |
| --- | --- |
| 79.6 % of control (=100) | B1 |
| 105 % of control (=100) | B2 |
| 96.6 % of control (=100) | B3 |
| 84 % of control (=100) | B4 |
| 101 % of control (=100) | B5 |
| 101 % of control (=100) | B6 |
| 99.7 % of control (=100) | B7 |
| 99.8 % of control (=100) | B8 |
| 101 % of control (=100) | B9 |

These binders were tested against T4, FcγRIIIa extracellular domain with … (assay: SPR (Biacore); He/Con_3a divided by He/Con_2b (FcγRIIIa over FcγRIIb)).
Method: as §1, §2

| He_3a/2b [ratio] | Binder |
| --- | --- |
| 1.72 | B10 |
| 1.32 | B11 |
| 1.28 | B12 |
| 1.47 | B13 |
| 1.34 | B14 |
| 1.33 | B15 |
| 1.59 | B16 |
| 1.31 | B17 |
| 1.29 | B18 |
